Target: PapMV coat protein CPΔN5 (disks) (Papaya mosaic virus) (UniProt P16596)
Assay: EMSA
Conditions: shift with 500 ng (22 pmol as printed) protein in 10 µl, 165 fmol RNA; cooperative; weak affinity; room temperature 60 min

In the case of PapMV 5' non-coding 80 nt RNA probe, the binding is reported as 500 ng.

From US9339535
